Reference: patent publication US20260242478A1 (published 2026)

Legend:
[1] = biological target: T1, Anti-CD28 Fab (SEQ ID NOs: 696, 697); test: phage binding ELISA on captured anti-CD28 Fab; competitor CD28 antigen pre-incubated in the wells
T1 construct: Biotinylated and captured on neutravidin coated plates in the phage ELISA
T1 sequence (VH, as listed by the source, chain 1 of 2): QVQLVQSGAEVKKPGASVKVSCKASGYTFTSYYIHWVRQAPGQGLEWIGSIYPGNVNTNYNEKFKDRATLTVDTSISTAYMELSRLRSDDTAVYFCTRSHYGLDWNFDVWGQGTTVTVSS
T1 sequence (VL, as listed by the source, chain 2 of 2): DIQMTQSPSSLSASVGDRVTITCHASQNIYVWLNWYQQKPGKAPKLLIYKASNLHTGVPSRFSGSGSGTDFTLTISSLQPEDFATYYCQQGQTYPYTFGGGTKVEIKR
Procedure: (§1) Clonal phage were harvested as crude supematants and screened via standard ELISAs. […] Prior to the addition of clonal phage, wells were incubated with blocking buffer and CD28 antigen or blocking buffer alone. Without washing or aspirating, clonal phage supematants were then added to the wells and incubated for a short time. Wells were then washed followed by detection of bound phage using a horse radish conjugated anti-M13 antibody.

[2] = biological target: T1, Anti-CD28 Fab (SEQ ID NOs: 696, 697); test: phage binding ELISA; clonal phage on biotinylated anti-CD28 Fab captured on neutravidin, anti-M13-HRP detection
Procedure: as §1

[3] = biological target: T2, Anti-CD28 Fab (SEQ ID NOs: 696, 697); test: phage binding ELISA; biotinylated anti-CD28 Fab on neutravidin plate, clonal phage detected with anti-M13-HRP;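 further: crude clonal phage supernatants added briefly to wells preincubated in blocking buffer with or without CD28 antigen, then washed before detection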
T2 construct: Biotinylated and captured on neutravidin coated plates in the phage ELISA
T2 sequence (VH, as listed by the source, chain 1 of 2): as the sequence (VH, as listed by the source, chain 1 of 2) above
T2 sequence (VL, as listed by the source, chain 2 of 2): as the sequence (VL, as listed by the source, chain 2 of 2) above
Procedure: (§2) Clonal phage were harvested as crude supematants and screened via standard ELISAs. […] Prior to the addition of clonal phage, wells were incubated with blocking buffer and CD28 antigen or blocking buffer alone. Without washing or aspirating, clonal phage supematants were then added to the wells and incubated for a short time. Wells were then washed followed by detection of bound phage using a horse radish conjugated anti-M13 antibody. Clonal phage of interest were then sent for sequence analysis.

[4] = biological target: T2, Anti-CD28 Fab (SEQ ID NOs: 696, 697); test: phage binding ELISA on captured anti-CD28 Fab; competitor: CD28 antigen pre-incubated in the well;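 further: clonal phage supernatants added briefly to wells preblocked with or without CD28, bound phage detected through an HRP-linked anti-M13 antibody, wells with blocking buffer alone as comparison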
Procedure: as §2

[5] = biological target: T3, Anti-CD28 Fab (SEQ ID NOs: 696, 697); test: phage binding ELISA; clonal phage on plate-captured biotinylated anti-CD28 Fab, anti-M13 HRP detection
T3 construct: In the phage ELISA the Fab was biotinylated and captured on neutravidin coated plates
T3 sequence (VH, as listed by the source, chain 1 of 2): as the sequence (VH, as listed by the source, chain 1 of 2) above
T3 sequence (VL, as listed by the source, chain 2 of 2): as the sequence (VL, as listed by the source, chain 2 of 2) above
Procedure: as §1

[6] = biological target: T3, Anti-CD28 Fab (SEQ ID NOs: 696, 697); test: phage binding ELISA on plate-captured anti-CD28 Fab pre-incubated with CD28 antigen (competitor: CD28)
Procedure: as §1

Binder | Anti-CD28 Fab signal in the presence of CD28 [1] | Anti-CD28 Fab (SEQ ID NOs: 696, 697) signal [2] | Anti-CD28 Fab signal (phage binding ELISA) [3] | Anti-CD28 Fab signal in the presence of CD28 (phage binding ELISA) [4] | Anti-CD28 Fab (SEQ ID NOs: 696, 697) signal [5] | Anti-CD28 Fab signal in the presence of CD28 [6]
TCAAGAHYEWPMCY (peptide, not shown: large carriers) [Phage-1510] | 0.12 | 1.61 | – | – | – | –
TCAAGASWEWPACL (tested as crude phage supernatant) [Phage-1556] | – | – | 1.48 | 0.08 | – | –
SCAAGAHYKWPVCI (tested as crude phage supernatant) [Phage-1547] | – | – | 1.51 | 0.06 | – | –
TCSAGATYKWPVCL (tested as crude phage supernatant) [Phage-1559] | – | – | 1.47 | 0.06 | – | –
SCAAGATYEWPICL [Phage-1521 (Peptide-92 library sequence, SEQ ID NO: 1817)] | – | – | – | – | 1.59 | 0.05
SCAAGATYEWPRCL (peptide, not shown: large carriers) [Phage-1515] | 0.07 | 1.6 | – | – | – | –
TCAAGATYSWPDCF (tested as crude phage supernatant) [Phage-1549] | – | – | 1.51 | 0.06 | – | –
TCSAGANYEWPWCF (peptide, not shown: large carriers) [Phage-1509] | 0.06 | 1.62 | – | – | – | –
TCAAGATYPWPECM [Phage-1529 (Peptide-92 library sequence, SEQ ID NO: 1825)] | – | – | – | – | 1.57 | 0.06
LCSAGAMYQWPTCL (peptide, not shown: large carriers) [Phage-1508] | 0.06 | 1.63 | – | – | – | –
SCSAGATYEWPYCF (tested as crude phage supernatant) [Phage-1560] | – | – | 1.47 | 0.06 | – | –
QCAAGAMWTWPVCF (tested as crude phage supernatant) [Phage-1550] | – | – | 1.5 | 0.07 | – | –
SCAAGATFHWPMCF [Phage-1526 (Peptide-92 library sequence, SEQ ID NO: 1822)] | – | – | – | – | 1.57 | 0.09
MCSAGATYPWPYCL (peptide, not shown: large carriers) [Phage-1504] | 0.1 | 1.64 | – | – | – | –
NCSAGATWPWPMCF (tested as crude phage supernatant) [Phage-1553] | – | – | 1.49 | 0.1 | – | –
SCAAGAPYPWPECL [Phage-1518 (Peptide-92 library sequence, SEQ ID NO: 1814)] | – | – | – | – | 1.59 | 0.07
LCSAGATYPWPWCM (peptide, not shown: large carriers) [Phage-1505] | 0.06 | 1.64 | – | – | – | –
WCAAGASYPWPWCL [Phage-1524 (Peptide-92 library sequence, SEQ ID NO: 1820)] | – | – | – | – | 1.58 | 0.05
TCAAGAMYQWPECF (tested as crude phage supernatant) [Phage-1557] | – | – | 1.48 | 0.06 | – | –
TCAAGAMWTWPECL [Phage-1528 (Peptide-92 library sequence, SEQ ID NO: 1824)] | – | – | – | – | 1.57 | 0.07
MCTAGATYPWPACL [Phage-1531 (Peptide-92 library sequence, SEQ ID NO: 1827)] | – | – | – | – | 1.56 | 0.07

Binder | Anti-CD28 Fab signal in the presence of CD28 [1] | Anti-CD28 Fab (SEQ ID NOs: 696, 697) signal [2] | Anti-CD28 Fab signal (phage binding ELISA) [3] | Anti-CD28 Fab signal in the presence of CD28 (phage binding ELISA) [4] | Anti-CD28 Fab (SEQ ID NOs: 696, 697) signal [5] | Anti-CD28 Fab signal in the presence of CD28 [6]
TCAAGAHWIWPWCE (peptide, not shown: large carriers) [Phage-1513] | 0.07 | 1.61 | – | – | – | –
GCAAGANYPWPLCL (peptide, not shown: large carriers) [Phage-1516] | 0.05 | 1.59 | – | – | – | –
TCAAGAHYLWPHCL (tested as crude phage supernatant) [Phage-1551] | – | – | 1.5 | 0.12 | – | –
LCAAGFNYPWPLCL [Phage-1530 (Peptide-92 library sequence, SEQ ID NO: 1826)] | – | – | – | – | 1.57 | 0.05
DCWGDAPYPWRVCL (peptide, not shown: large carriers) [Phage-1506] | 0.07 | 1.64 | – | – | – | –
ICAAGFIWSWPACF (tested as crude phage supernatant) [Phage-1548] | – | – | 1.51 | 0.08 | – | –
SCAAGAQYGWPMCL [Phage-1523 (Peptide-92 library sequence, SEQ ID NO: 1819)] | – | – | – | – | 1.59 | 0.05
TCAAGAYYAWPMCL (peptide, not shown: large carriers) [Phage-1517] | 0.07 | 1.59 | – | – | – | –
SCSAVFSYAWPTCL (peptide, not shown: large carriers) [Phage-1511] | 0.08 | 1.61 | – | – | – | –
TCSAGAAYAWPYCL [Phage-1519 (Peptide-92 library sequence, SEQ ID NO: 1815)] | – | – | – | – | 1.59 | 0.07
TCAAGAGWQWPMCF (peptide, not shown: large carriers) [Phage-1514] | 0.11 | 1.6 | – | – | – | –
TCTAVFPYEWPRCL [Phage-1525 (Peptide-92 library sequence, SEQ ID NO: 1821)] | – | – | – | – | 1.57 | 0.07
WCTAGFSYKLSICL (peptide, not shown: large carriers) [Phage-1507] | 0.06 | 1.63 | – | – | – | –
LCAAGAAYPWPMCL [Phage-1520 (Peptide-92 library sequence, SEQ ID NO: 1816)] | – | – | – | – | 1.59 | 0.06
TCAAGAHYTWPTCL (tested as crude phage supernatant) [Phage-1558] | – | – | 1.47 | 0.07 | – | –
TCAAGATYTWPTCF (tested as crude phage supernatant) [Phage-1555] | – | – | 1.48 | 0.05 | – | –
PCAAGAMWAWPYCL (tested as crude phage supernatant) [Phage-1552] | – | – | 1.49 | 0.05 | – | –
TCAAGATWPWPSCL (peptide, not shown: large carriers) [Phage-1512] | 0.08 | 1.61 | – | – | – | –
SCAAGAMWPWPVCV [Phage-1522 (Peptide-92 library sequence, SEQ ID NO: 1818)] | – | – | – | – | 1.59 | 0.07
TCSAGFSYKWPWCL [Phage-1527 (Peptide-92 library sequence, SEQ ID NO: 1823)] | – | – | – | – | 1.57 | 0.06
TCAAGVHFGWPLCF (tested as crude phage supernatant) [Phage-1554] | – | – | 1.49 | 0.07 | – | –
